T1: Recombinant human ADAM10 ectodomain (Homo sapiens, UniProt O14672)
T1 construct: Recombinant human ADAM10 ectodomain
T1 sequence (O14672 214-672 limits assumed): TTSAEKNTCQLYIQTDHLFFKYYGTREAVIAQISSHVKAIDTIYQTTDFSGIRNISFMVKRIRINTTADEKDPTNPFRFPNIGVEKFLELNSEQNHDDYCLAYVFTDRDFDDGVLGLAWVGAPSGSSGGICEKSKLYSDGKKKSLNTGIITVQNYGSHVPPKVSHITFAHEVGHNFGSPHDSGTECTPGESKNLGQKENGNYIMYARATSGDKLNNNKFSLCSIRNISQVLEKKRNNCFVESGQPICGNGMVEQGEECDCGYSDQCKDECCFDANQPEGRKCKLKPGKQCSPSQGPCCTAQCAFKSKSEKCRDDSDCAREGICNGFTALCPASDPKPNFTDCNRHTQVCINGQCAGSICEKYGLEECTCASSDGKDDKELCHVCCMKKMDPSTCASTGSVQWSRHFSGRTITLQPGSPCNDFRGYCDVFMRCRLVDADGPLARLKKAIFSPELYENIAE


Legend:
[1] = target: T1, Recombinant human ADAM10 ectodomain; assay: ADAM10 quench fluorescent peptide cleavage assay; format: biochemical; details: titrated concentrations
[2] = target: T2, Recombinant human TACE catalytic domain (Homo sapiens, UniProt P78536); assay: Quenched fluorescent peptide cleavage assay, isolated TACE catalytic domain; format: biochemical; details: 1 nM TACE catalytic domain; read-out: IC50 Cat:WT, isolated catalytic domain, quenched fluorescent peptide
T2 construct: The mature catalytic domain of TACE (Arg^215-Val^477-GlySer-His^6) was prepared using an identical baculovirus system; GlySer-His6 (C); made in house; host or cells: baculovirus system (Sf9)
T2 sequence (P78536 215-477): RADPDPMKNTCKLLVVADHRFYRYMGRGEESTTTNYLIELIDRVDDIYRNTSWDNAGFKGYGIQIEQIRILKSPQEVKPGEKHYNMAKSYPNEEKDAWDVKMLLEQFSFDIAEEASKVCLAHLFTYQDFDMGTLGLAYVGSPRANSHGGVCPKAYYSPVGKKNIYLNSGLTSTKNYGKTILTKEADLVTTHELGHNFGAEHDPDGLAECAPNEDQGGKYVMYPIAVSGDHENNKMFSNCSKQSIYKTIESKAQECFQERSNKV
Experimental: (§1) Recombinant human TACE catalytic domain and TACE ectodomain were diluted to 1 nM in 50 mM Tris-HCl, 10 mM CaCl2, 0.05% Brij35, 1% DMSO, pH 7.4 and pre-incubated with titrated concentrations of inhibitor for 4-hours at room temperature. Following incubation, each reaction was separated into 200 μL technical quadruplets in a 96-well black Microwell plate (Nunc 237105), and the fluorogenic substrate methoxycoumarinyl acetyl-Lys-Pro-Leu-Gly-Leu-dinitrophenyl diaminopropionyl-Ala-Arg-NH2 (Peptides International SMO-3670-PI) was added to each well (final concentration 1 μM). Every 30 seconds fluorescence was excited at 320 nm and emission recorded at 405 nm in a Tecan Infinite-200 (at 37° C. for 2000 seconds). Individual readings were normalised against a substrate only control and compiled to produce a mean trend for each variable. A linear regression slope for each reaction was calculated in GraphPad Prism (ΔFU sec^−1) and proteolytic activity was expressed as the slope percentage of an untreated control (% ΔFU sec^−1). Final results represent mean values from three separate experiments.
(§2) Purified recombinant scFvs were subjected to an 8-point fluorometric titration ([TACE]=1 nM) (as above) and a 16-point titration ELISA ([TACE]-500 nM). […] Change in Gibb's Free Energy (ΔΔG) was calculated using the equation: ΔΔG=+RT1n(Ala/WT).

[3] = target: T3, Recombinant human TACE ectodomain (Arg215-Arg651) (Homo sapiens, UniProt P78536); assay: Quenched fluorescent peptide cleavage assay, TACE ectodomain; format: biochemical; details: 1 nM TACE ectodomain; read-out: IC50, TACE ectodomain proteolysis, quenched fluorescent peptide
T3 construct: Mature recombinant TACE ectodomain (Arg^215-Arg^651) was expressed in baculovirus infected sf9 cells; made in house; host or cells: baculovirus infected Sf9 cells
T3 sequence (P78536 215-651): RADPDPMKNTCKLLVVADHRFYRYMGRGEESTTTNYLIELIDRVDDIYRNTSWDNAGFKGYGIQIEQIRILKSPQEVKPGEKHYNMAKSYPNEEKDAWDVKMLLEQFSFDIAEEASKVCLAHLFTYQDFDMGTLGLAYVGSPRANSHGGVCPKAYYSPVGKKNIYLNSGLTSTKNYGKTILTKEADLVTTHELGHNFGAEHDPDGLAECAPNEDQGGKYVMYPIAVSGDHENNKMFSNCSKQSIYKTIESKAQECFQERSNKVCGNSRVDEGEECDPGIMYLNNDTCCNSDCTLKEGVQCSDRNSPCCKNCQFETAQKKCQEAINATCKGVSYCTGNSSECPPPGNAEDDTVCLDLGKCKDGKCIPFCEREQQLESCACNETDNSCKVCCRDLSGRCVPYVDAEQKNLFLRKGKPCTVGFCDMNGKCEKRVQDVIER
Experimental: as §1, §2

[4] = target: T4, PDI treated TACE ectodomain (Homo sapiens, UniProt P78536); assay: Antibody binding after PDI treatment of the TACE ectodomain
T4 construct: Mature recombinant TACE ectodomain (Arg^215-Arg^651) was expressed in baculovirus infected sf9 cells; made in house; host or cells: baculovirus infected Sf9 cells
T4 sequence (P78536 215-651): as above

Row | effect on ADAM10 proteolytic activity [1] | IC50 [2] [nM] | IC50 [3] [nM] | Molecule | immunoreactivity following PDI treatment of the TACE ectodomain [4]
1 | rapidly inhibits | – | – | CC(C)(C)[C@H](NC(=O)[C@H](CCCc1ccc(Cl)cc1)CC(=O)NO)C(N)=O [CT1746, reference compound] | –
2 | – | 2.3 | 0.89 | D1(A12) scFv: scFv format; VH SEQ ID NO: 7, VL SEQ ID NO: 9 (antibody, listed as Homo sapiens, V domains shown, scFv linker) VH: EVQLVESGGGLVRPGGSLRLSCAASGFTFSSYAMSWVRQAPGKGLEWVSAISGSGGSTYYADSVKGRFTISRDNTKNSLYLQMTSLRADDTAFYYCVKDFGPGYGTGWFDYWGPGTLVTVSA VL: SDIQMTQSPSSLSASVGDRVTITCRASQSISSYLNWYQQKPGKAPKLLIHDASSLQSGVPSRFSGSGSGTDFTLTISSLQPEDFATYYCQQSFSIPLTFGGGTKMDIKR | largely resistant to PDI modulation
